Test [1] addresses T1, recombinant human SIRPα variant 2 protein (human, UniProt P78324 31-370, limits assumed).
T1 construct: polymorphic variant 2; also called SIRPα v2; hSIRPαV2
Description: ELISA on coated recombinant human SIRPα v2, OD450. The method, then:
After coating of the antigen, the wells were blocked with PBS/0.05% Tween (PBST) with 1% BSA for 1 h at RT.
Between all incubation steps, the wells of the plate were washed with PBST three times. […]
For orientation: In an ELISA, binding on a coated surface is turned into a signal by an enzyme label.

The target of test [2] is PD-L1 (blocking assay of Example 11) (UniProt Q9NZQ7 19-239, limits assumed). Description: cell-based or functional assay.
PD-L1 (blocking assay of Example 11), sequence (Q9NZQ7 19-239 limits assumed): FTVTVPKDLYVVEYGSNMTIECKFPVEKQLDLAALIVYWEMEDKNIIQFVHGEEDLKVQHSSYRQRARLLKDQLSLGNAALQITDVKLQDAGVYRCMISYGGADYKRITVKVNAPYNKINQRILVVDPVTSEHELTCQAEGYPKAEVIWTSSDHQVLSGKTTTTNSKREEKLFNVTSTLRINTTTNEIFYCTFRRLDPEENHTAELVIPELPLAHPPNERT
In test [3] the target is T2, PD-L1 expressed on cells (UniProt Q9NZQ7 19-290, limits assumed).
T2 construct: whole, on cells
T2 sequence (Q9NZQ7 19-290 limits assumed): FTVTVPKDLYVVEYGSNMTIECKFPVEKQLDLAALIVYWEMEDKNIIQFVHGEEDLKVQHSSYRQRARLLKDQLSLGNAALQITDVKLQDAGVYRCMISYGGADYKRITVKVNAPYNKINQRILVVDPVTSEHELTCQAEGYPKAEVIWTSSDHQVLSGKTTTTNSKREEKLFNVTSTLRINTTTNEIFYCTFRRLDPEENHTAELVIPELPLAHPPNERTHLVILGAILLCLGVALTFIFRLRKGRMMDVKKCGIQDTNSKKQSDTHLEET
The test can be described thus: FACS binding test on PD-L1 cell line, Geom.Mean; unit from the axis log(nm). A general note: In flow cytometry, cells or beads pass a laser one at a time.

The target of test [4] is T1, recombinant human SIRPα variant 2 …. The test can be described thus: SPR Biacore 8K, antibody captured, antigen analyte. On the procedure:
The binding kinetics assay of antibody to antigen was performed using Biacore 8K system through human antibody capture approach. The […] Fc lgG were immobilized on CM5 sensor chip according to the manufactory's instruction. The test antibody was injected and captured by the immobilized anti-human Fc lgG. […] The assay system was regenerated by injection of 10 mM Glycine-HCl pH 1.5 for 30 seconds. The running buffer was HBS-EP+ (10 mM HEPES, pH 7.4, 150 mM NaCl, 3 mM EDTA and 0.05% P20). The assay temperature was 25° C., and the association and dissociation time were 180 and 600 seconds, respectively.
For orientation: In SPR one partner is held on a chip, and binding of the other changes the refractive index at the surface.

T1 sequence (P78324 other isoform, or with tags, fused parts or gaps mutant limits assumed): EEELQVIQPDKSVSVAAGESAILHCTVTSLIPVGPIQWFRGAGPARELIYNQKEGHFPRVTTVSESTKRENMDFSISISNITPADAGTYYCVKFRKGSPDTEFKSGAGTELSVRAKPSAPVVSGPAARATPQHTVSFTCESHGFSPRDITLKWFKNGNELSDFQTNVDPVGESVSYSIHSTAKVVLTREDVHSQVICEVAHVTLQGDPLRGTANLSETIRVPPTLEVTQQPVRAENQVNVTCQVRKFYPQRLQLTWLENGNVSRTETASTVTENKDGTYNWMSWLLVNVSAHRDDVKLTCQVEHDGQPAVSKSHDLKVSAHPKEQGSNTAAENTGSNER

B1: 248G3F6 (antibody, V domains shown)
VH: EVQLQQSGAELVKPGASVKLSCTASGFNFEDTYMHWVKQRPDQGLEWIGRIDPADGDTKYNPKFQDKATITVDTSSNTAYLQLSSLTSEDTAVYYCVRGNYVNWGQGTTLTVSS
VL: QIVLIQSPAIMSASPGERVTLTCRASSSVSSSYLYWYQQKPGSSPKLWIYSTSNLASGVPARFSGSGSGTSYSLTISSMEAEDAASYFCHQWYSYPRTFGGGTKLEIK
notes: murine hybridoma antibody; also called mouse anti-SIRPα mAb 248G3F6
As to B1, in test [1], the EC50 came to 0.0136 µg/mL.

B2: PD-L1/SIRPa-HC1 (bispecific antibody, human IgG4 S228P, kappa)
heavy: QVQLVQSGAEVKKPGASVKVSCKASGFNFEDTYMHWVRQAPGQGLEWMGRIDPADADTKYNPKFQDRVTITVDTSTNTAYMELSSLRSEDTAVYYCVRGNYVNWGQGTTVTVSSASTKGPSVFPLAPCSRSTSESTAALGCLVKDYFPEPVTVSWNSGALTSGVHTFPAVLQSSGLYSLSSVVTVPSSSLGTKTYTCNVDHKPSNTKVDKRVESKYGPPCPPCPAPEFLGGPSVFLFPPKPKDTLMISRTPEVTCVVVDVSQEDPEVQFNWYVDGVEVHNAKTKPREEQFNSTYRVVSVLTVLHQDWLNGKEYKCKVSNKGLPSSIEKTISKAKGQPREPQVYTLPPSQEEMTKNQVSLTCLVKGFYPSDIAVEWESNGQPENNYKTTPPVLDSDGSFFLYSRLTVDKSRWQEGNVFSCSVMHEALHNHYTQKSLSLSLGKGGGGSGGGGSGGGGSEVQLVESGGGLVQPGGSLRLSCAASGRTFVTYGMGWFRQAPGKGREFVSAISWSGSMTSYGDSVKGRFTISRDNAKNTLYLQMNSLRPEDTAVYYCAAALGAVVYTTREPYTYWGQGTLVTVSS
light: EIVLTQSPGTLSLSPGERATLSCRASSSVSSSYLYWYQQKPGQAPRLLIYSTSNLASGIPDRFSGSGSGTDYTLTISRLEPEDAAVYFCHQWYSYPRTFGGGTKVEIKRTVAAPSVFIFPPSDEQLKSGTASVVCLLNNFYPREAKVQWKVDNALQSGNSQESVTEQDSKDSTYSLSSTLTLSKADYEKHKVYACEVTHQGLSSPVTKSFNRGEC
notes: Format I: AS11948SVH12 sdAb at the C-terminus of IgG4 Fc of 02-hz52 (248G3F6); also called PD-L1/SIRPα-HC1
Take B2: the “EC50, luminescence (RLU) in the PD-1/PD-L1 Blockade Assay” value (“EC50, luminescence (RLU)” below) in test [2] was 0.9 nM. This molecule also gave an EC50 in test [3] of 0.321 nM.

B3: PD-L1/SIRPa-HN1 (bispecific antibody, human IgG4 S228P, kappa)
heavy: not shown
light: EIVLTQSPGTLSLSPGERATLSCRASSSVSSSYLYWYQQKPGQAPRLLIYSTSNLASGIPDRFSGSGSGTDYTLTISRLEPEDAAVYFCHQWYSYPRTFGGGTKVEIKRTVAAPSVFIFPPSDEQLKSGTASVVCLLNNFYPREAKVQWKVDNALQSGNSQESVTEQDSKDSTYSLSSTLTLSKADYEKHKVYACEVTHQGLSSPVTKSFNRGEC
notes: Format II: sdAb at the N-terminus of the heavy chain (248G3F6); also called PD-L1/SIRPα-HN1
B3 displayed a 50% effective concentration (EC50) in test [3] of 0.311 nM.

B4: PD-L1/SIRPa-LC2 (bispecific antibody, human IgG4 S228P, kappa)
heavy: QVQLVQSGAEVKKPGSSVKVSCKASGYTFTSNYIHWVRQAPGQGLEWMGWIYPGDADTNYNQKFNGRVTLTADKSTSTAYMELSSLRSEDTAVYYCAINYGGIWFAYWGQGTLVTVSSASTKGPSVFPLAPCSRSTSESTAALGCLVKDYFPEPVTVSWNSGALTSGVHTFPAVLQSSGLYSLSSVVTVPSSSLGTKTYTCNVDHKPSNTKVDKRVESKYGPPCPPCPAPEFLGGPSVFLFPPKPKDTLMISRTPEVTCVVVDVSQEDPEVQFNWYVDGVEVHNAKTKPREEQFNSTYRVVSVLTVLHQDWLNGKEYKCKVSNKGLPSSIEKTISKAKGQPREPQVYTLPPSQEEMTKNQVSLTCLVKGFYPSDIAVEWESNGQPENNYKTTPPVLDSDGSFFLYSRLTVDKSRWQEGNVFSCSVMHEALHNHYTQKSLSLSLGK
light: DIQMTQSPSSLSASVGDRVTITCQASQDIGNKLIWYQQKPGKAPKLLIYYVTNLPGGVPSRFSGSGSGTDFTLTISSLQPEDFATYYCLQYKQNPLTFGQGTKLEIKRTVAAPSVFIFPPSDEQLKSGTASVVCLLNNFYPREAKVQWKVDNALQSGNSQESVTEQDSKDSTYSLSSTLTLSKADYEKHKVYACEVTHQGLSSPVTKSFNRGECGGGGSGGGGSGGGGSEVQLVESGGGLVQPGGSLRLSCAASGRTFVTYGMGWFRQAPGKGREFVSAISWSGSMTSYGDSVKGRFTISRDNAKNTLYLQMNSLRPEDTAVYYCAAALGAVVYTTREPYTYWGQGTLVTVSS
notes: Format III: sdAb at the C-terminus of the light chain (300A6A6); also called PD-L1/SIRPα-LC2
Turning to B4, the “EC50, luminescence (RLU)” value in test [2] was 1.55 nM. The same molecule showed an EC50 in test [3] of 0.912 nM.

B5: PD-L1/SIRPa-HN2 (bispecific antibody, human IgG4 S228P, kappa)
heavy: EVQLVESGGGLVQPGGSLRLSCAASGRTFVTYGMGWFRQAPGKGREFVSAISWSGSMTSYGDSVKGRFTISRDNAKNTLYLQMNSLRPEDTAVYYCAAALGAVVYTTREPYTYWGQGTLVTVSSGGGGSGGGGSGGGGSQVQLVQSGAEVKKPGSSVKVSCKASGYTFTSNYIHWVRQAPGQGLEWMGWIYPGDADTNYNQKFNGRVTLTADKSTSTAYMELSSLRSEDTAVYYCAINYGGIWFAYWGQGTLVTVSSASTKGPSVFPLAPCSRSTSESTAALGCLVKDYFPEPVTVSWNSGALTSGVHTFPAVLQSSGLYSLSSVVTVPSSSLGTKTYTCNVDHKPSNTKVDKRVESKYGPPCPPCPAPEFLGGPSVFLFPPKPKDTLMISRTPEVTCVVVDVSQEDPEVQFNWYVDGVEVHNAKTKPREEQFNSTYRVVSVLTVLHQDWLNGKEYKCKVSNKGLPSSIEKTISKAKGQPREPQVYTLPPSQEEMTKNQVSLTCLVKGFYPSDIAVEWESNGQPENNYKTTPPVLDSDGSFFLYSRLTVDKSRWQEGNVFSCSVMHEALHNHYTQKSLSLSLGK
light: DIQMTQSPSSLSASVGDRVTITCQASQDIGNKLIWYQQKPGKAPKLLIYYVTNLPGGVPSRFSGSGSGTDFTLTISSLQPEDFATYYCLQYKQNPLTFGQGTKLEIKRTVAAPSVFIFPPSDEQLKSGTASVVCLLNNFYPREAKVQWKVDNALQSGNSQESVTEQDSKDSTYSLSSTLTLSKADYEKHKVYACEVTHQGLSSPVTKSFNRGEC
notes: Format II: sdAb at the N-terminus of the heavy chain (300A6A6); also called PD-L1/SIRPα-HN2
B5: the “EC50, luminescence (RLU)” value in test [2] turned out to be 0.908 nM. This molecule came in with a concentration for a half-maximal effect (EC50) in test [3] of 0.269 nM.

B6: 300A6A6 (antibody, V domains shown)
VH: QVQLQQSGTELVKPGSSVKISCKASGYTFTSNYIHWIRQQPGNGLEWIGWIYPGDGDTNYNQKFNGKATLTADKSSSTAYMQLSSLTSEDYAVYFCAINYGGIWFAYWGQGTLVTVSS
VL: DIQMTQSPSSMSASLGDRVTITCQASQDIGNKLIWFQQKPGKSPRLMIHYVTNLPGGVPLRFSGSRSGSDYSLTISSLESEDMADYYCLQYKQNPLTFGSGTKLEIK
notes: murine hybridoma antibody; also called mouse anti-SIRPα mAb 300A6A6
Take B6: in test [1], the concentration giving a half-maximal response (EC50) stood at 0.0105 µg/mL.

B7: PD-L1/SIRPa-LN2 (bispecific antibody, human IgG4 S228P, kappa)
heavy: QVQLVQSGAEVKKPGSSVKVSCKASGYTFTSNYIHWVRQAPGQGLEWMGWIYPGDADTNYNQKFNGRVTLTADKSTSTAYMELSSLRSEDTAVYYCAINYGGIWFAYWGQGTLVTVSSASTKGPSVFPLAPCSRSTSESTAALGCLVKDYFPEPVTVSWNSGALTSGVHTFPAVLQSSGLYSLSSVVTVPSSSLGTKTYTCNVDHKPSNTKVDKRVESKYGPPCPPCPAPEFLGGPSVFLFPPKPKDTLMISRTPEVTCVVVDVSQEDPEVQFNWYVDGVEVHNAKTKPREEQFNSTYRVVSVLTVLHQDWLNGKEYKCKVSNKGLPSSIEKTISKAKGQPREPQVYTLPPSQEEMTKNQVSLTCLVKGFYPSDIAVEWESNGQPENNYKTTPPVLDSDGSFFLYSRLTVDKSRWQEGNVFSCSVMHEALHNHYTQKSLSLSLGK
light: EVQLVESGGGLVQPGGSLRLSCAASGRTFVTYGMGWFRQAPGKGREFVSAISWSGSMTSYGDSVKGRFTISRDNAKNTLYLQMNSLRPEDTAVYYCAAALGAVVYTTREPYTYWGQGTLVTVSSGGGGSGGGGSGGGGSDIQMTQSPSSLSASVGDRVTITCQASQDIGNKLIWYQQKPGKAPKLLIYYVTNLPGGVPSRFSGSGSGTDFTLTISSLQPEDFATYYCLQYKQNPLTFGQGTKLEIKRTVAAPSVFIFPPSDEQLKSGTASVVCLLNNFYPREAKVQWKVDNALQSGNSQESVTEQDSKDSTYSLSSTLTLSKADYEKHKVYACEVTHQGLSSPVTKSFNRGEC
notes: Format IV: sdAb at the N-terminus of the light chain (300A6A6); also called PD-L1/SIRPα-LN2
Turning to B7, in test [2], the “EC50, luminescence (RLU)” value was 0.873 nM. The midpoint of the response in test [3], the EC50, lay at 0.205 nM.

B8: HSP210-03-hz51 (antibody, V domains shown)
VH: QVQLVQSGAEVKKPGSSVKVSCKASGYTFTSNYIHWVRQAPGQGLEWMGWIYPGDADTNYNQKFNGRVTLTADKSTSTAYMELSSLRSEDTAVYYCAINYGGIWFAYWGQGTLVTVSS
VL: DIQMTQSPSSLSASVGDRVTITCQASQDIGNKLIWYQQKPGKAPKLLIYYVTNLPGGVPSRFSGSGSGTDFTLTISSLQPEDFATYYCLQYKQNPLTFGQGTKLEIK
notes: humanized 300A6A6, VH v5 + VL v1; also called SIRPa IgG#2 03-hz51
In the case of B8, in test [4], the Kd stood at 3.03 nM, the koff came to 0.001 s⁻¹ and the kon was determined as 331000 M⁻¹ s⁻¹.

As usually defined, the EC50 is the midpoint of the concentration-response curve. The Kd is the constant that tells how readily two partners part at equilibrium. As usually defined, the koff is the first-order rate constant of dissociation. Broadly, the kon is the second-order rate constant of association.

The values above are taken from US20240101716A1 (LA NOVA MEDICINES DEVELOPMENT, published 2024).
